From ChEMBL document CHEMBL1240325, “Non-heme dioxygenases: cellular sensors and regulators jelly rolled into one?” (Nat Chem Biol, 2007)

Legend:
[1] = substrate: O=C(O)CCC(=O)C(=O)O; experiment: (§1) Activity of HIF prolyl hydroxylase-3
[2] = substrate: O=C1O[C@H]([C@@H](O)CO)C(O)=C1O; experiment: as §1
[3] = substrate: O=O; experiment: as §1
[4] = substrate: O=C(O)CCC(=O)C(=O)O; experiment: (§2) Activity of FIH-1
[5] = substrate: O=C1O[C@H]([C@@H](O)CO)C(O)=C1O; experiment: as §2
[6] = substrate: O=O; experiment: as §2
[7] = substrate: O=C(O)CCC(=O)C(=O)O; experiment: (§3) Activity of collagen prolyl 4 hydroxylase-1
[8] = substrate: O=C1O[C@H]([C@@H](O)CO)C(O)=C1O; experiment: as §3
[9] = substrate: O=O; experiment: as §3
[10] = substrate: O=C(O)CCC(=O)C(=O)O; experiment: (§4) Activity of HIF prolyl hydroxylase-2
[11] = substrate: O=C1O[C@H]([C@@H](O)CO)C(O)=C1O; experiment: as §4
[12] = substrate: O=O; experiment: as §4

B1: Prolyl hydroxylase EGLN3 (Homo sapiens), Q9H6Z9 (protein)
chain: MPLGHIMRLDLEKIALEYIVPCLHEVGFCYLDNFLGEVVGDCVLERVKQLHCTGALRDGQLAGPRAGVSKRHLRGDQITWIGGNEEGCEAISFLLSLIDRLVLYCGSRLGKYYVKERSKAMVACYPGNGTGYVRHVDNPNGDGRCITCIYYLNKNWDAKLHGGILRIFPEGKSFIADVEPIFDRLLFFWSDRRNPHEVQPSYATRYAMTVWYFDAEERAEAKKKFRNLTRKTESALTED
With B1 the Km [1] was 55 µM, the Km [2] was 140 µM and the Km [3] was 230 µM.

B2: Hypoxia-inducible factor 1-alpha inhibitor (Homo sapiens), Q9NWT6 (protein)
chain: MAATAAEAVASGSGEPREEAGALGPAWDESQLRSYSFPTRPIPRLSQSDPRAEELIENEEPVVLTDTNLVYPALKWDLEYLQENIGNGDFSVYSASTHKFLYYDEKKMANFQNFKPRSNREEMKFHEFVEKLQDIQQRGGEERLYLQQTLNDTVGRKIVMDFLGFNWNWINKQQGKRGWGQLTSNLLLIGMEGNVTPAHYDEQQNFFAQIKGYKRCILFPPDQFECLYPYPVHHPCDRQSQVDFDNPDYERFPNFQNVVGYETVVGPGDVLYIPMYWWHHIESLLNGGITITVNFWYKGAPTPKRIEYPLKAHQKVAIMRNIEKMLGEALGNPQEVGPLLNTMIKGRYN
B2 gave a Km [4] of 25 µM, a Km [5] of 260 µM and a Km [6] of 90 µM.

B3: Prolyl 4-hydroxylase subunit alpha-1 (Homo sapiens), P13674 (protein)
chain: MIWYILIIGILLPQSLAHPGFFTSIGQMTDLIHTEKDLVTSLKDYIKAEEDKLEQIKKWAEKLDRLTSTATKDPEGFVGHPVNAFKLMKRLNTEWSELENLVLKDMSDGFISNLTIQRQYFPNDEDQVGAAKALLRLQDTYNLDTDTISKGNLPGVKHKSFLTAEDCFELGKVAYTEADYYHTELWMEQALRQLDEGEISTIDKVSVLDYLSYAVYQQGDLDKALLLTKKLLELDPEHQRANGNLKYFEYIMAKEKDVNKSASDDQSDQKTTPKKKGVAVDYLPERQKYEMLCRGEGIKMTPRRQKKLFCRYHDGNRNPKFILAPAKQEDEWDKPRIIRFHDIISDAEIEIVKDLAKPRLRRATISNPITGDLETVHYRISKSAWLSGYENPVVSRINMRIQDLTGLDVSTAEELQVANYGVGGQYEPHFDFARKDEPDAFKELGTGNRIATWLFYMSDVSAGGATVFPEVGASVWPKKGTAVFWYNLFASGEGDYSTRHAACPVLVGNKWVSNKWLHERGQEFRRPCTLSELE
B3 was tested, and the Km [7] was 20 µM, the Km [8] was 300 µM and the Km [9] was 40 µM.

B4: Egl nine homolog 1 (Homo sapiens), Q9GZT9 (protein)
chain: MANDSGGPGGPSPSERDRQYCELCGKMENLLRCSRCRSSFYCCKEHQRQDWKKHKLVCQGSEGALGHGVGPHQHSGPAPPAAVPPPRAGAREPRKAAARRDNASGDAAKGKVKAKPPADPAAAASPCRAAAGGQGSAVAAEAEPGKEEPPARSSLFQEKANLYPPSNTPGDALSPGGGLRPNGQTKPLPALKLALEYIVPCMNKHGICVVDDFLGKETGQQIGDEVRALHDTGKFTDGQLVSQKSDSSKDIRGDKITWIEGKEPGCETIGLLMSSMDDLIRHCNGKLGSYKINGRTKAMVACYPGNGTGYVRHVDNPNGDGRCVTCIYYLNKDWDAKVSGGILRIFPEGKAQFADIEPKFDRLLFFWSDRRNPHEVQPAYATRYAITVWYFDADERARAKVKYLTGEKGVRVELNKPSDSVGKDVF
B4 showed a Km [10] of 2 µM, a Km [11] of 180 µM and a Km [12] of 100 µM.
